molecular target: T1, human IL-1β (human, UniProt P01584 117-269); test: IC50 column of Table 63; receptor binding assay presumed
T1 construct: antigen of the ABT2 dAbs; also called hIL-1β; IL-1 beta

Binder	IC50
ABT2-65-76 (other, VH dAb) VH: EVQLLESGGGLVQPGGSLRLSCVASGFTFEDYQMGWVRQAPGKGLEWVTSISAMGNRTYYADSVKGRFTISRDDSKNTLYLQMNSLRAEDTAVYYCAQNLVRLGRSRWMFDYWGQGTLVTVSS	8 nM
ABT2-65-78 (other, VH dAb) VH: EVQLLESGGGLVQPGGSLRLSCVASGFTFEDYQMGWVRQAPGKGLEWVSSISAMGNRTYYADSVKGRFTISRDDSKNTLYLQMNSLRAEDTAVYYCAQNLVRLGTSRWMFDYWGQGALVTVSS	30 nM
ABT2-65-83 (other, VH dAb) VH: EVQLLESGGGLVQPGGSLRLSCVASGFTFEDYQMGWVRQAPGKGLEWVSSISAMGNRTYYADSVKGRFTISRDDSKNTLYLQMNSQRAEDTAVYYCAQNLVRLGRSRWMFDYWGQGTLVTVSS	300 nM
ABT2-65-84 (other, VH dAb) VH: EVQLLESGGGLVQPGGSLRLSCVASGFSFEDYQMGWVRQAPRKGLEWISSISAMGNRTYYADSVKGRFTISRDDSKNTLYLQMNSLRAEDTAVYYCAQNLVRLGRSRWMFDYWGQGTLVTVSS	60 nM
ABT2-65-87 (other, VH dAb) VH: EVQLLESGGGLVQPGGSLRLSCVASGFTFEDYQMGWVRQAPGKDLEWVSSISAMGNRTYYADSVKGRFTISRDDSKNTLYLQMNSLRAEDTAVYYCAQNLVRLGRSRWMFDYWGQGTLVTVSS	50 nM
ABT2-65-90 (other, VH dAb) VH: EVQLLESGGGLVQPGGSLRLSCVASGFTFEDYQMGWVRQAPGKGQEWVSSISAMGNRTYYADSVKGRFTISRDDSKNTLYLQMNSLRAEDTAVYYCAQNLVRLGRSRWMFDYWGHGTLVTVSS	300 nM
ABT2-65-114 (other, VH dAb) VH: EVQLLESGGGLVQPGGSLRLSCAASGFTFREYMMGWVRQAPGKGLEWVSSISAMGNRTYYADSVKGRFTISRDDSKNTLYLQMNSLRAEDTAVYYCAQNLVRLGRSRWMFDYWGQGTLVTVSS	4 nM
ABT2-65-115 (other, VH dAb) VH: EVQLLESGGGLVQPGGSLRLSCAASGFTFIDYQMGWVRQAPGKGLEWVSSISAMGNRTYYADSVKGRFTISRDDSKNTLYLQMNSLRAEDTAVYYCAQNLVRLGRSRWMFDYWGQGTLVTVSS	4 nM
ABT2-65-117 (other, VH dAb) VH: EVQLLESGGGLVRPGGSLRLSCVASGFTFEDYQMGWVRQAPGKGLEWISSISAMGNRTYYADSVKGRFTISRDDSKNTLYLQMNSLRAEDTAVYYCAQNLVRLGRSRWMFDYWGQGTLVTVSS	10 nM
ABT2-65-118 (other, VH dAb) VH: EVQLLESGGGLVQPGGSLRLSCAASGFTFATYTMGWVRQAPGKGLEWVSSISAMGNRTYYADSVKGRFTISRDDSKNTLYLQMNSLRAEDTAVYYCAQNLVRLGRSRWMFDYWGQGTLVTVSS	4.6 nM
ABT2-65-119 (other, VH dAb) VH: EVQLLESGGGLVQPGGSLRLSCAASGFTFIAYPMGWVRQAPGKGLEWVSSISAMGNRTYYADSVKGRFTISRDDSKNTLYLQMNSLRAEDTAVYYCAQNLVRLGRSRWMFDYWGQGTLVTVSS	4 nM
ABT2-65-120 (other, VH dAb) VH: EVQLLESGGGLVQPGGSLRLSCVASGFTFEDYQMGWVRQAPGKGLEWVSSISAMGMRTYYADSVKGRFTISRDDSKNTLYLQMNSLRAEDTAVYYCAQNLVRLGRSRWMFDYWGQGTLVTVSS	4.2 nM
ABT2-65-121 (other, VH dAb) VH: EVQLLESGGGLVQPGGSLRLSCVASGFTFEDYQMGWVRQAPGKGLEWVSSIAAHGNRTYYADSVKGRFTISRDDSKNTLYLQMNSLRAEDTAVYYCAQNLVRLGRSRWMFDYWGQGTLVTVSS	3.9 nM
ABT2-65-124 (other, VH dAb) VH: EVQLLESGGGLVQPGGSLRLSCVASGFTFEDYQMGWVRQAPGKGLEWVSSISAVGNRTYYADSVKGRFTISRDDSKNTLYLQMNSLRAEDIAVYYCAQNLVRLGRSRWMFDYWGQGTLVTVSS	3.8 nM
ABT2-65-125 (other, VH dAb) VH: EVQLLESGGGLVQPGGSLRLSCVASGFTFEDYQMGWVRQAPGKGLEWISSISAMGNRTYYADSVKGRFTISRDDSKNTLYLQMNSLRAEDTAVYYCAQNLVRLGRSRWMFDYWGQGTLVTVSS	4 nM
ABT2-65-126 (other, VH dAb) VH: EVQLLESGGGLVQPGGSLRISCVTSGFTFEDYQMGWVRQAPGKGLEWVSSISAMGNRTYYADSVKGRFTISRDDSKNTLNLQMNSLRAEDTAVYYCAQNLVRLGRSRWVFDYWGQGTLVTVSS	4.3 nM
ABT2-65-127 (other, VH dAb) VH: EVQLLESGGGLVQPGGSLRLSCVASGFTFEDYQMGWVRQAPGKGLEWVTSISAMGNRTYYADSVKGRFTISRDDSKNTLYLQMNSLRAEDTAVYYCAQNLVRLGRSRWMFDYWGQGTLVTVSS	5.5 nM

Binder	IC50
ABT2-65-129 (other, VH dAb) VH: EVQLLESGGGLVQPGGSLRLSCVASGFTFEDYQMGWVRQAPGKGLEWVSTVSAMGNRTYYADSMKGRFTISRDDSKNTLYLQMNSLRAEDTAVYYCAQNLVRLGRSRWMFDYWGQGTLVTVSS	3.4 nM
ABT2-65-130 (other, VH dAb) VH: EVQLLESGGGLVQPGGSLRLSCVASGFTFEDYQMGWVRQAPGKGLEWVSSISAMVNRTYYADSVKGRFTISRDDSKNTLYLQMNSLRAEDTAVYYCAQNLVRLGRSRWMFDYWGQGTLVTVSS	4.3 nM
ABT2-65-131 (other, VH dAb) VH: EVQLLESGGGLVQPRGSLRLSCVASGFTFEDYQMGWVRQAPGKGLEWVSSISTMGNRTYYADSVKGRFTISRDDSKNTLYLQMNSLRAEDTAVYHCAQNLVRLGRSRWMFDYWGQGTLVTVSS	13.2 nM
ABT2-65-132 (other, VH dAb) VH: EVQLLESGGGLVQPGGSLRLSCAASGFTFEDYQMGWVRQAPGKGLEWVSSISAMGNRTYYADSVKGRFTISRDDSKNTLYLQMNSLRAEDTAVYYCAENLVRLASRRWMFDYWGQGTLVTVSS	5 nM
ABT2-65-133 (other, VH dAb) VH: EVQLLESGGGLVQPGGSLRLSCAASGFTFEDYQMGWVRQAPGKGLEWVSSISAMGNRTYYADSVKGRFTISRDDSKNTLYLQMNSLRAEDTAVYYCAENLVHWKRGGWMFDYWGQGTLVTVSS	30 nM
ABT2-65-135 (other, VH dAb) VH: EVQLLESGGGLVQPGGSLRLSCAASGFTFEDYQMGWVRQAPGKGLEWVSSISAMGNRTYYADSVKGRFTISRDDSKNTLYLQMNSLRAEDTAVYYCAENLVRIKKMKWMFDYWGQGTLVTVSS	5 nM
ABT2-65-137 (other, VH dAb) VH: EVQLLESGGGLVQPGGSLRLSCAASGFTFEDYQMGWVRQAPGKGLEWVSSISAMGNRTYYADSVKGRFTISRDDSKNTLYLQMNSLRAEDTAVYYCAENLVRTAKRRWMFDYWGQGTLVTVSS	5 nM
ABT2-65-138 (other, VH dAb) VH: EVQLLESGGGLVQPGGSLRLSCAASGFTFEDYQMGWVRQAPGKGLEWVSSISAMGNRTYYADSVKGRFTISRDDSKNTLYLQMNSLRAEDTAVYYCAENLVRVTARKWMFDYWGQGTLVTVSS	5 nM
ABT2-65-139 (other, VH dAb) VH: EVQLLESGGGLVQPGGSLRLSCAASGFTFEDYQMGWVRQAPGKGLEWVSSISAMGNRTYYADSVKGRFTISRDDSKNTLYLQMNSLRAEDTAVYYCAQNLVRVRVRRWMFDYWGQGTLVTVSS	4 nM
ABT2-65-141 (other, VH dAb) VH: EVQLLESGGGLVQPGGSLRLSCAASGFTFEDYQMGWVRQAPGKGLEWVSSISAMGNRTYYADSVKGRFTISRDDSKNTLYLQMNSLRAEDTAVYYCAENLVRIKQTKWMFDYWGQGTLVTVSS	5 nM
ABT2-65-143 (other, VH dAb) VH: EVQLLESGGGLVQPGGSLRLSCAASGFTFEDYQMGWVRQAPGKGLEWVSSISAMGNRTYYADSVKGRFTISRDDSKNTLYLQMNSLRAEDTAVYYCAENLVRLQRDRWMFDYWGQGTLVTVSS	5 nM
ABT2-65-144 (other, VH dAb) VH: EVQLLESGGGLVQPGGSLRLSCAASGFTFEDYQMGWVRQAPGKGLEWVSSISAMGNRTYYADSVKGRFTISRDDSKNTLYLQMNSLRAEDTAVYYCAENLVRISKKQWMFDYWGQGTLVTVSS	6 nM
ABT2-65-145 (other, VH dAb) VH: EVQLLESGGGLVQPGGSLRLSCAASGFTFEDYQMGWVRQAPGKGLEWVSSISAMGNRTYYADSVKGRFTISRDDSKNTLYLQMNSLRAEDTAVYYCAENLVRIQKVKWMFDYWGQGTLVTVSS	5 nM
ABT2-65-146 (other, VH dAb) VH: EVQLLESGGGLVQPGGSLRLSCAASGFTFEDYQMGWVRQAPGKGLEWVSSISAMGNRTYYADSVKGRFTISRDDSKNTLYLQMNSLRAEDTAVYYCAENLVRTMKRKWMFDYWGQGTLVTVSS	6 nM
ABT2-65-148 (other, VH dAb) VH: EVQLLESGGGLVQPGGSLRLSCAASGFTFEDYQMGWVRQAPGKGLEWVSSISAMGNRTYYADSVKGRFTISRDDSKNTLYLQMNSLRAEDTAVYYCAQNLVRLGSKRWMFDYWGQGTLVTVSS	4 nM
ABT2-65-149 (other, VH dAb) VH: EVQLLESGGGLVQPGGSLRLSCAASGFTFEDYQMGWVRQAPGKGLEWVSSISAMGNRTYYADSVKGRFTISRDDSKNTLYLQMNSLRAEDTAVYYCAENLVRVDRRRWMFDYWGQGTLVTVSS	4 nM
ABT2-65-151 (other, VH dAb) VH: EVQLLESGGGLVQPGGSLRLSCAASGFTFEDYQMGWVRQAPGKGLEWVSSISAMGNRTYYADSVKGRFTISRDDSKNTLYLQMNSLRAEDTAVYYCAENLVRWRKHAWMFDYWGQGTLVTVSS	6 nM

Reference: patent US20090291081A1 (AbbVie / Abbott, published 2009)
